Test results as given in paper PMC6715699.

Molecular target: T1, TRF2 (UniProt Q15554)
T1 sequence: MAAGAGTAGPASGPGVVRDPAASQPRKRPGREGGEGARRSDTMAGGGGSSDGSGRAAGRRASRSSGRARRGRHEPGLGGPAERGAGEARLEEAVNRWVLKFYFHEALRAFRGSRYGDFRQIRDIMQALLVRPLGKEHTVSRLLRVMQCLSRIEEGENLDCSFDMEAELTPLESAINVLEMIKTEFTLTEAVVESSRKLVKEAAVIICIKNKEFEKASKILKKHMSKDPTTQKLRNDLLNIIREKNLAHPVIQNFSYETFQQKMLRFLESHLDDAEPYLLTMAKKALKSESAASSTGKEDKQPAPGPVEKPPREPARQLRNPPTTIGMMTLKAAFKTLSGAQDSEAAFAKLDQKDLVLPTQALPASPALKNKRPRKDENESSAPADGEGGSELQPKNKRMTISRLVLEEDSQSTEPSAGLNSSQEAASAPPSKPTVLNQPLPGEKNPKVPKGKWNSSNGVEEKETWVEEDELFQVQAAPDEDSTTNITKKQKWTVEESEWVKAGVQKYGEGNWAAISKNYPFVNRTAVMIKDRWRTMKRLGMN
Assay: MST
Conditions: 50 nM labelled DNA; MST in standard MST buffer (composition and pH not given), premium-treated capillaries, Monolith NT.115; 20 min at room temperature stated for the protein …

## TTAGGGTTAGGGTTAGGG (double strand) [TELO (TTAGGG)3]
  Kd: 12.2 nM
